{"source": "paper PMC11060673", "biological_target": "His-LHP1 (recombinant Prunus mume Like Heterochromatin Protein 1) (Prunus mume (Japanese apricot))", "test": "SPR; BIAcore X-100; PmLHP1 immobilized on a CM5 sensor chip by amine coupling; target protein diluted in a gradient; steady-state affinity model", "data": [{"substance": "Gst-AGL24 (recombinant Prunus mume AGAMOUS-like 24) (natural protein)", "values": [{"measurement": "Kd", "value": 20.6, "unit": "µM"}]}]}
